T1: Peptide 2a (human)
T1 construct: also called Pep2a
T1 peptide: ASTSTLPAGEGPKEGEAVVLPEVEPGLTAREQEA

T2: cell surface CD138 (human CD138) (human, UniProt P18827 23-310)
T2 construct: whole, on cells; also called membrane CD138
T2 sequence (looked up): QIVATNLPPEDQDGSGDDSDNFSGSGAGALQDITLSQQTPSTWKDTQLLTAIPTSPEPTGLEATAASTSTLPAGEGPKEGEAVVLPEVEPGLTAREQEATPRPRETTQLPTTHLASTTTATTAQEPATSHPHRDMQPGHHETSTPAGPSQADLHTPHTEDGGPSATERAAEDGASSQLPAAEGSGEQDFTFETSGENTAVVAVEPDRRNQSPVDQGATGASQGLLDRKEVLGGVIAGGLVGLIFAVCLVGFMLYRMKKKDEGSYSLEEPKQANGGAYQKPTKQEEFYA

T3: recombinant CD138 extracellular domain (soluble CD138) (human, UniProt P18827 23-250)
T3 construct: also called soluble CD138 extracellular domain; biotinylated CD138
T3 sequence: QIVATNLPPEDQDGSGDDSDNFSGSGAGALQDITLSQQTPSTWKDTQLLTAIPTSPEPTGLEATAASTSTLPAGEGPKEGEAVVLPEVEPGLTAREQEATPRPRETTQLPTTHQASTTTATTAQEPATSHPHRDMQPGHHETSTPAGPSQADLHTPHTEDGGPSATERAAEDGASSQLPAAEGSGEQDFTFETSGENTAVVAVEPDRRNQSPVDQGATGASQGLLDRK

T4: Pep6 (human)
T4 construct: also called Peptide 6; Peptide-6
T4 peptide: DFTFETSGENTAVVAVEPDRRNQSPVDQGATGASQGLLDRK

T5: rCD138 (recombinant CD138) (human, UniProt P18827 23-254, limits assumed)
T5 sequence (looked up): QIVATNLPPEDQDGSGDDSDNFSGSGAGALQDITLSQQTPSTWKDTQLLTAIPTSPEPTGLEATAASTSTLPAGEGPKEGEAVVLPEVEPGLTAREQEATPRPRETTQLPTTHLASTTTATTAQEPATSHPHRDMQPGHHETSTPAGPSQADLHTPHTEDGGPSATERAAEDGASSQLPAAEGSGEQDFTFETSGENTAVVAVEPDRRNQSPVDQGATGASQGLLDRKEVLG

T6: Pep5 (human)
T6 construct: also called Peptide 5
T6 peptide: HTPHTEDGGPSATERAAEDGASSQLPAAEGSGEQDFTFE

T7: Pep3 (human)
T7 construct: also called Peptide 3
T7 peptide: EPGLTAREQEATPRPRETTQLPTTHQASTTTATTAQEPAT

T8: Pep4 (human)
T8 construct: also called Peptide 4
T8 peptide: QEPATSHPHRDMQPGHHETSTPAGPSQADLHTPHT

B1: antibody 2510 (antibody, human IgG1, V domains shown)
VH: QVQLHQPGTSLVKPGASVKLSCKASGYNFSSYYMHWVKQRPGQGLEWIGTIHPSDSTTNYNQKFKGKATLTVDKSSRTAYMQLNSLTFEDSAVYYCANFVYWGQGTSVTVSS
VL: DIVITQDELSNPVTSGDSVSISCRSSKSLLYKDGKTYLNWFLQRPGQSPQLLIYVVSTRASGVSDRFSGSGSGTDFTLEISRVKAEDVGVYYCQQLVEYPYTFGGGTKLEIK
B2: antibody 2610 (antibody, V domains shown)
VH: B1 VH with N28S, Y60C
VL: B1 VL
B3: antibody 2910 (antibody, V domains shown)
VH: B1 VH with N28T
VL: B1 VL
B4: antibody 619 (antibody, V domains shown)
VH: QIQLVQSGPELKKPGETVKISCKASGYTFTTYGMSWVKQAPGKGLKWMGWINTYSGVPTYADDFKGRFAFSLETSASTAYLQINNLKNEDTATYFCAREGSTMVTRYYFDYWGQGTTLTVSS
VL: DIVMTQAAPSVPVTPGESVSISCRSSKSLLHSNGNTYLYWFLQRPGQSPQVLIYRMSNLASGVPDRFSGSGSGTAFTLRISRVEAEDVGVYYCMQHLESPYTFGGGTKLEIK
notes: Mouse hybridoma-derived anti-CD138 antibody
B5: antibody 616 (antibody, V domains shown)
VH: B4 VH with Q3H, K19R, G44A, A97T
VL: B4 VL with V51L, Y92H, K108T
notes: as for B4
B6: antibody 623 (antibody, V domains shown)
VH: B4 VH with Y94F
VL: B4 VL with V51L, S99Y, Y101S
notes: as for B4
B7: antibody 604 (antibody, V domains shown)
VH: QVQLQQPGAELVKPGASVKVSCKASGYNFINYWMHWVKQRPGQGLEWIGRIHPSDSYTNYNQKFKGKATLTVDKSSSTAYMQLSSLTSEDSAVYYCASPISTLYWGQGTTLTVSS
VL: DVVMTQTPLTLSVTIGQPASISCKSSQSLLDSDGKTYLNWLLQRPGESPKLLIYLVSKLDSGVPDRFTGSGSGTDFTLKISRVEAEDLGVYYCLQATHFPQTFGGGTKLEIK
notes: as for B4
B8: antibody 603 (antibody, V domains shown)
VH: QVQVQVPGAELVKPGASVKVSCKASGYTFTSYWMHWMKKRPGQGLEWIGRIHPSDSDTNYNQNFKGKATLTVDKSSSTAYMQLSSLTSEDSAVYFCATGFSFWGQGTLVTVSA
VL: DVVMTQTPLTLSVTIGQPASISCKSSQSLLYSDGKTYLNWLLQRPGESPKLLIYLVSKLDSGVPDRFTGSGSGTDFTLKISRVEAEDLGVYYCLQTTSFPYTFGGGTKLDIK
notes: as for B4
B9: antibody 624 (antibody, V domains shown)
VH: B8 VH with V6L, M37V, S84T, S91F, F95Y, A97S
VL: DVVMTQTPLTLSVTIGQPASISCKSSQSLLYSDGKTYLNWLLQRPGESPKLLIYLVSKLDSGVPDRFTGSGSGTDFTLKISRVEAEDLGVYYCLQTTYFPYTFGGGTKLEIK
notes: Mouse hybridoma-derived; afucosylated form used for ADCC
B10: antibody 2710 (antibody, V domains shown)
VH: B1 VH with N28T, Y60C
VL: B1 VL
B11: antibody 1409 (antibody, human IgG1, V domains shown)
VH: EVQLVESGGGLVQPKGSLKLSCAASGFTFNTYAMHWVRQAPGKGLEWVARIRSKSSNYATYYADSVKDRFTISRDDSQSMLYLQMNNLKTEDTAMYYCVRELRLRYAMDYWGQGTSVTVSS
VL: DILMTQTPLTLSVTIGQPASISCKSSQSLLYTNGKTYLNWLLQRPGQSPKRLIYLVSKLDSGVPDRFSGSGSGTDFTLKISRVEAEDLGVYYCLQSTHFPLTFGAGTKLELK
notes: Chimeric monoclonal antibody, murine variable regions and human IgG1
B12: antibody 617 (antibody, V domains shown)
VH: B8 VH with V4L, V6L, G26A, M37V, K39Q, S77N, F95Y
VL: DIVMTQSHKFMSTSVGDRVSITCKASQDVSTTVAWYQQKPGQSPKLLIYSASYRYTGVPDRFTGSGSGTDFTFTISSVQAEDLAVYYCQQHYSTRPTFGGGTKLEIK
notes: as for B4

Numbering of substitutions follows the chain as printed.

In one test the target is T1, Peptide 2a. Description: ELISA (FIG. 18B). On the technique in general: In an ELISA, binding on a coated surface is turned into a signal by an enzyme label.
For the molecule B1, the binding result is “binds”.
On the same count and under the same terms, as for B2, the entry is “binds”.

The next test deals with T2, cell surface CD138 (human CD138). The test is described as follows: flow cytometry, U266 cells, afucosylated antibody. The method, then:
(§1) Binding of anti-CD138 antibodies to CD138 was tested by flow cytometry binding assay. Multiple myeloma cell lines RPMI 8226 (ATCC) and U266 (ATCC) were grown in RPMI1640 with 10% FBS. On the day of experiment, 0.25×10⁶ cells were washed with FACS buffer (PBS+0.5% BSA) and incubated with dilution series of anti-CD138 antibodies (starting 10 ug/ml) or hybridoma supernatants (starting with undiluted supernatant) for 30 min at 4° C. followed by incubation with goat-anti-human/mouse conjugated APC antibodies (BioLegend) for 30 min at 4° C. Fluorescence was detected using flow cytometer.
The afucosylated antibody variants were then tested for capacity to induce ADCC, as described above.
As to B1, the binding result is reported as “binds”.
Same read-out and setting: as for B3, the entry is “binds”.

A further test has the same target. Description: flow cytometry, RPMI 8226 cells. The method, then: as §1
For B4, the “% cells Positive” value was 85%.
In the case of B5, the “% cells Positive” value turned out to be 18.3%.
Turning to B6, the “% cells Positive” value was 63.8%.
Take B7: the “% cells Positive” value stood at 82.5%.
With B8, the “% cells Positive” value was 81.4%.
For the molecule B9, the “% cells Positive” value turned out to be 89.3%.

A further test deals with T3, recombinant CD138 extracellular domain …. The test is described as follows: ELISA (FIG. 18A).
As to B1, the binding result was “binds”.
Take B2: the binding result is “binds”.

For a further test, the target named is T4, Pep6. The test is described as follows: ELISA (FIG. 18C).
On to B1, for which the binding result is on record as “binds”.
As to B2, the binding result is given as “binds”.

The next test has as its target T2, cell surface CD138 (human CD138). The test is described as follows: form of CD138 not named.
Consider B2, for which the binding result is on record as “binds”.
Still for that read-out and setting: the entry for B10 is “binds”.

The target of a further test is T1, Peptide 2a. Description: peptide binding ELISA. The method, then:
(§2) As above, the monoclonal antibodies were tested for binding to a series of CD138 peptides in four-fold serial dilutions starting at 1 μg/mL. […] HRP-conjugated anti-human IgG-Fc antibody (1:5000 dilution) was used for detection. Antibody B-B4 was also tested as a reference. […] Reference antibody B-B4 only bound to Peptide 2a.
As for B11, the binding result is recorded as “binds”.

In a further test the target is T4, Pep6. The test is described as follows: peptide binding ELISA. The method, then: as §2
As to B11, the binding result was “binds”.

In another test the target is T2, cell surface CD138 (human CD138). Description: flow cytometry, U266 cells. The method, then:
as §1
(A flow cytometer gives signals particle by particle.)
In the case of B4, the “% cells Positive” value came out at 3.7%.
For B5, the “% cells Positive” value came out at 6.1%.
Still for that read-out and setting: the figure for B6 is 7%; for B7 it is 96%.
On the same count and under the same terms, the figure for B8 is 95.8%; for B9 it is 96.7%.

Another test addresses T5, rCD138 (recombinant CD138). The test is described as follows: ELISA, coated rCD138.
Consider B4, for which the “ELISA O.D.” value was found to be 0.882 O.D.
B5: the “ELISA O.D.” value came to 1.18 O.D.
As to B6, the “ELISA O.D.” value amounted to 0.803 O.D.
With B7, the “ELISA O.D.” value came to 0.61 O.D.
Still for that read-out and setting: the figure for B8 is 0.585 O.D; for B9 it is 1.52 O.D.

For another test, the target named is T6, Pep5. Description: ELISA, coated peptide.
Consider B4, for which the “ELISA O.D.” value was determined as 0.066 O.D.
Still for that read-out and setting: the figure for B5 is 0.061 O.D.
B6: the “ELISA O.D.” value was 0.08 O.D.
The same measure, in the same setting: as for B7, the figure is 0.067 O.D; as for B12, 0.066 O.D; as for B8, 0.053 O.D.
On the same count and under the same terms, the figure for B9 is 0.066 O.D.

A further test deals with T7, Pep3. Description: ELISA, coated peptide.
Regarding B4, the “ELISA O.D.” value turned out to be 0.067 O.D.
Regarding B5, the “ELISA O.D.” value was determined as 0.063 O.D.
Still for that read-out and setting: the figure for B6 is 0.086 O.D.
Same read-out and setting: as for B7, the figure is 0.058 O.D; as for B8, 0.047 O.D; as for B9, 0.069 O.D.

A further test deals with T8, Pep4. Description: ELISA, coated peptide.
Regarding B4, the “ELISA O.D.” value was found to be 0.066 O.D.
Same read-out and setting: as for B5, the figure is 0.065 O.D; as for B6, 0.082 O.D.
Take B7: the “ELISA O.D.” value was 0.058 O.D.
On the same count and under the same terms, the figure for B12 is 0.091 O.D; for B8 it is 0.051 O.D.
Same read-out and setting: the figure for B9 is 0.069 O.D.

A further test deals with T4, Pep6. The test is described as follows: ELISA, coated peptide.
On to B4, for which the “ELISA O.D.” value was found to be 1.37 O.D.
Still for that read-out and setting: as for B5, the figure is 1.62 O.D; as for B6, 1.67 O.D.
Same read-out and setting: as for B7, the figure is 0.939 O.D.
Take B12: the “ELISA O.D.” value was found to be 0.809 O.D.
On the same count and under the same terms, the figure for B8 is 0.863 O.D; for B9 it is 1.68 O.D.

Values taken from patent publication US20190100588A1 (VISTERRA, published 2019).
